Reference: the supplement of paper PMC9170038

Tested on: MS2 coat protein
Test: apparent KD of MS2 coat protein; designed switch direction (-1 OFF switch, 1 ON switch): -1; higher = weaker reporter binding
In short: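 An oligonucleotide input, 200 uM small-molecule ligand, or no input was present during titration of SNAP-549-labelled MS2 coat protein, which was doubled from 0.7 or 1.5 nM to 3 µM. Designed RNA switches had been transcribed on Illumina chips by stalled E. coli RNA polymerase. Apparent KD per design is the median over clusters of curves fitted to normalised cluster fluorescence.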

[1] = Eterna round: R95, input ligand: microRNA oligo, concentration not stated
[2] = input ligand: microRNA oligo, concentration not stated
[3] = Eterna round: R95, input ligand: FMN 200 uM
[4] = Eterna round: R95, input ligand: none

Sequence	apparent KD of MS2 coat protein (input ligand: FMN 200 uM)	apparent KD of MS2 coat protein (input ligand: none)	apparent KD of MS2 coat protein [1]	also measured
UCUCGGACAGGAUAUCUGUCAUCUGACAUGAGGAUCACCCAUGUCCUCGCCGCCAACCCAAGAGAAGGGUCCCACA [Eternabot (L1) Solution 76] (Eterna round: R97, puzzle: Exclusion 5)	99.2 nM	120 nM		
GGGUGACAUGAGGAUCACCCAUGUCAGGAUAUGCUUCGGCUUCGGAAAUGAAGUUGAAGUAGAAGGGACUGCCC [-30.1, -29.1 kcal, A 27% sequence 3 bis] (Eterna round: R97, puzzle: Exclusion 1)	84.4 nM	42.2 nM		
UAUAUGUGAGGAUAUCCUUUAUUAAUUAUUAUAUUAUAUAUGGAGAAGGCACAUGAGGAUCACCCAUGUUAUAU [lam1] (Eterna round: R97, puzzle: Exclusion 4)	72.8 nM	42.1 nM		
GGUGUGAGGCAGGAUAUGCAAUAUGUAAGUAAUGCAGAAGGGUCUACAUGAGGAUCACCCAUGUGUGCGGUAGA [Ex6 #3] (Eterna round: R97, puzzle: Exclusion 6)	251 nM	140 nM		
AUGGUACAUGAGGAUCACCCAUGUUAGGAUAUCGCGUGAGGUAAAACUUACACACACACGAGAAGGGACGACAU (puzzle: Exclusion 1)			55.1 nM	
AAUUAAUUAAUUAAUUAAUACAUGAGGAUCACCCAUGUAAUUUAAGAUCCUUAUACAAGCUUUGAUCUCGUCUUAUA [Stov1/5-A1] (Eterna round: R97, puzzle: Sensor, turn-off variant 1)	94.5 nM	106 nM		
GCUGGUCGAGGAUAUAUAUGACGUGCUUCGGCACGAAGAUCACAUGAGGAUCACCCAUGUAGAAGGCGACCAGC [E2/8-A1] (Eterna round: R97, puzzle: Exclusion 2)	1480 nM	156 nM		
CGUCUGUGAGGAUAUGGUAUCGUUUACAUGAGGAUCACCCAUGUUACAUGGGACUAGAGACUAGAAGGUACGGACG [EX5 #48] (Eterna round: R97, puzzle: Exclusion 5)	461 nM	391 nM		
CUGAGCUGAGGAUAUACAUGAGGAUCACCCAUGUAAAGUAGCUUGCGUACAGGCAGAUGUAGAAGGCAGUUCGG [Mod of JL 2 - Jieux - Exclusion 3] (Eterna round: R97, puzzle: Exclusion 3)	34.7 nM	20.5 nM		
GGCAUCAUCUGGUCCUGAUACAUGAGGAUCACCCAUGUUCUACUGUAGGUCGUAAGCAGCUUACCCUCUUAGGCACA [JR_Sensorv2_tov_Sub1249] (Eterna round: R96, puzzle: Sensor v2, turn-off variant)	380 nM	308 nM		apparent KD of MS2 coat protein [2]: 227 nM
CCUAUGUGAGGAUAUGUCUGGUCUUCUUUUAUUUUUUACAGACAGAAGGCACAUGAGGAUCACCCAUGUCAGAC [Ex4 - 3 - 48] (puzzle: Exclusion 4)			23 nM	
UAAGAGUGAGGAUAUGCGUCGCUGGUCCGGAUGGACGCAUGACAUGAGGAUCACCCAUGUAGAAGGCACAAAAC [Enxela Mod 5 - Jieux - Exclusion 2] (Eterna round: R97, puzzle: Exclusion 2)	23.5 nM	23.5 nM		
AUUGAGCUAGGAUAUACAUGAGGAUCACCCAUGUAGCAAAAUAGCUAUACAUGAUCGGGUAGAAGGAGCGCGAG [Tirivela] (puzzle: Exclusion 3)			14.3 nM	
CCGGAAUAGCAGGAUAUAGGAGUCGAUAGACACCUAGAAGGGCUGACAUGAGGAUCACCCAUGUGUCCUACCGG [Fiskers Ex 6 - 83] (puzzle: Exclusion 6)			71.5 nM	
UAUUAUCAAGCAAGAUCCCACAUGAGGAUCACCCAUGUGCUCGUCUUAUUUCUGGCCUUAUUGGUCUCUCGUCUAAU [JR_STOV1_v2_Sub095] (Eterna round: R97, puzzle: Sensor, turn-off variant 1)	25.8 nM	26.7 nM		
UAAGAAGGUGUUAGGAUAUGCAGAGCAGGGCUAAGGCAGAAGGGACAUGAGGAUCACCCAUGUGCUACGGGUGC [Enrainbera] (puzzle: Brourd's mod of Exclusion 4)			37.2 nM	apparent KD of MS2 coat protein [3]: 51.2 nM; apparent KD of MS2 coat protein [4]: 35.9 nM
UAUAUAUAGUAAGGAUAUGUAUUAAUUUGAUAAACAGAAGGUACUGACAUGAGGAUCACCCAUGUUUUAGUGUGGGCAUGUAGA [JMF's solution 84] (Eterna round: R96, puzzle: Exclusion NG 1)				apparent KD of MS2 coat protein [2]: 75.6 nM
UACAUGAGGAUCACCCAUGUUUUGUCGUGUAUGGUAUUUAUCUAGGAUAUCAAUGUAUAUAUUUAUGAGAAGGAGAAUAUUAAU [JMF's solution 42] (Eterna round: R96, puzzle: Exclusion NG 3)	37.4 nM	34 nM		apparent KD of MS2 coat protein [2]: 25.1 nM

Sequence	apparent KD of MS2 coat protein (input ligand: FMN 200 uM)	apparent KD of MS2 coat protein (input ligand: none)	apparent KD of MS2 coat protein [1]	also measured
UUUAUUAAUUAAUAUAAUAAGAUCACAUGAGGAUCACCCAUGUAGGAUAUCAGCUCGAUUAGAGCUGAGAAGGACAUAAUUAUA [ExNG3/1-B1] (Eterna round: R96, puzzle: Exclusion NG 3)				apparent KD of MS2 coat protein [2]: 29.2 nM
UUCACAUGGACAUGAGAUCACAUGAGGAUCACCCAUGUGAAUAACAAGCUUUUUGUUCGUCUUAUGUCCAAUAAUAA [Stov1/14-D1] (Eterna round: R97, puzzle: Sensor, turn-off variant 1)	14.1 nM	13.1 nM		
ACAGCUAAUCUGCUCGUCUACAUGAGGAUCACCCAUGUCAUGGUCCACCUAAGAGUCAGUUACCCAAGUGAUAUUCG [Eternabot (L1) Solution 29] (Eterna round: R97, puzzle: Sensor, turn-off variant 1)	204 nM	224 nM		
UUUUUAUAUGAAGGAUAUACUUAACAUGAGGAUCACCCAUGUGGUGUUGUGAGUGAGUGAGUUUAGUAGAAGGUCAAGUAUUUC [JMF's solution 43] (Eterna round: R96, puzzle: Exclusion NG 2)	752 nM	731 nM		apparent KD of MS2 coat protein [2]: 329 nM
AAAACUGCCCAUGACCGCAAGCUUUUUGCUUGUCUUACCACAUGAGGAUCACCCAUGUGUCAUGGGCUCCUUAUAAA [Tisoanor] (puzzle: Sensor v3, turn-off variant 2)			10.8 nM	apparent KD of MS2 coat protein [3]: 12.7 nM; apparent KD of MS2 coat protein [4]: 11.3 nM
UGUUGUUCCGAAGGAUAUGUAUGAGGAUCACCCAUAAGAGUUGAUGUACCAUGAGGAUCACCCAUGUAGAAGGUCGGGUUAACU [pwkr exNG2 2xF5 1xFMN.20] (Eterna round: R96, puzzle: Exclusion NG 2)	200 nM	101 nM		apparent KD of MS2 coat protein [2]: 52.6 nM
CCUUAGCGAGGAUAUACAUGAGGAUCACCCAUGUGAUCCUAAGGCUGAUCAAGCCUAUGUAGAAGGCGCAAAUC [salish99_ex3_r4_003] (Eterna round: R97, puzzle: Exclusion 3)	180 nM	442 nM		
CUUUUGUGAGGAUAUCAGUAGUAAAAUAAUAAUAUUACUACUGAGAAGGCACAUGAGGAUCACCCAUGUUCCUC [Fiskers Ex 4 Super stable 44 mod 1] (puzzle: Exclusion 4)			39 nM	
AAAGGUGAGUAGGAUAUCCACGCACGAAUAAAGGGAGAAGGACUUACAUGAGGAUCACCCAUGUAAGGUGGUAA [Orte] (puzzle: Exclusion 6)			14.3 nM	apparent KD of MS2 coat protein [3]: 17.1 nM; apparent KD of MS2 coat protein [4]: 13.8 nM
GUUAGUUAAGGAUAUACAGGGAGCCGCGGCGUCUCGCCGCAACAUGAGGAUCACCCAUGUAGAAGGUAGCCAUU [JL ViennaUCT Enbibi mod 1] (puzzle: Exclusion 2)			25.5 nM	
AUUUGCACGCUGCGGUCCUACAUGAGGAUCACCCAUGUGGUCUGGUGGCGUGGGUCGCCGGACUUGGCUCGUCUUGG [salish99_S_TOV1_R5_034] (Eterna round: R97, puzzle: Sensor, turn-off variant 1)	14.9 nM	14.7 nM		
ACCUCACAUGAGGAUCACCCAUGUCAGGAUAUCUAAUAUAGUAGCGUUCCCGACGCUAAGAGAAGGGACAUUAA [EX1 #32] (Eterna round: R97, puzzle: Exclusion 1)	23 nM	13.9 nM		
AAUGCGGACAAAGGAUAUUGCGGUGACCGGCUCGGCGUACCGAGCCUACAUGAGGAUCACCCAUGUAAGAAGGUUGUCGCUAAA [Mat - Exclusion NG 2 - Mod of JL - D74] (Eterna round: R96, puzzle: Exclusion NG 2)	43.1 nM	17.6 nM		apparent KD of MS2 coat protein [2]: 13.8 nM
GAGGCAUGCUGAGGUCCACACAUGAGGAUCACCCAUGUAAUGACAAGCUUUUUCCUCGUCUUAUCGCUAUCGCGUUC [Dilaenla] (puzzle: Sensor v3, turn-off variant 1)			28.4 nM	apparent KD of MS2 coat protein [3]: 15.5 nM; apparent KD of MS2 coat protein [4]: 15 nM
AAGAGGUCAGGAUAUACGGAGAGAGGGAGUUGGUGAGGGUAACAUGAGGAUCACCCAUGUAGAAGGGACUAAGA [JR_Exclu2_Sub078] (puzzle: Exclusion 2)			22.4 nM	
AACCCUGUAGGAUAUCAGGGACUACACAUGAGGAUCACCCAUGUGACCUCAACCUAGUGUUGAGAAGGACAGGUAU [Eternabot (Original) Solution 22] (Eterna round: R97, puzzle: Exclusion 5)	50.9 nM	49.1 nM		
AAACUCCCGGCAACCGGGAACAUGAGGAUCACCCAUGUGGCGUGACUCAUACGGGCUUUUUGUUCGUUUUAUUCACG [Xeisororer] (puzzle: Sensor v3, turn-off variant 1)			27.7 nM	apparent KD of MS2 coat protein [3]: 53.4 nM; apparent KD of MS2 coat protein [4]: 63.6 nM
